Data published in the nanobody polyreactivity screen of Harvey et al. (2022).

assay: yeast display, Sf9 membrane polyspecificity reagent, FACS + sequencing; frameworks hold sequencing errors
Method in brief: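 Using colony PCR, genes from sorted yeast display clones were amplified, then sequenced on MiSeq at 2 × 250 and filtered by CDR length. The clones had been stained with 10% biotinylated, detergent-solubilized Sf9 membrane reagent for 1 hour at 4 °C and sorted by FACS into low and high (top ~1%) gates on anti-HA and streptavidin fluorescence. Polyreactivity labels come from the gate of origin.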

Sequence | polyreactivity (PSR sort gate)
QVLLVESGGGIVQAGGSLRLSCAASGIIFYVNAMGWYRQAPGKERELVAAITFGGDSTYYADSVKGRFTISRDNAKNTVYLQMNSLKPEDTAVYYCATDGDPAYPEMEYWGQGTQVTVSS | low polyreactivity
QVLLVESGGGLVQAGGSLRLSCAASGFIFFKYAMGWYRQAPGKEREFVAAISKSGTSTYYADSVKGRFTISRDNAKNTVYLQLNILKPEDTAVYDCAARYGRGSAYPEYDYWGQGTQVTVSS | high polyreactivity
QVLLVESGGGLVQAGGSLRLSCAASGFIFPYNAMGWYRQAPGKERELVASISGSGRTNYADSVKGRFTISRDNAKNTVYLQMNSLKPEDTAVYYCNKRWYVQKGYDYWGQGTQVTVSS | high polyreactivity
QVLLVESGGGLVQAGGSLRLSCAASGRTFYWYAMGWYRQAPGKERELVAGISSGGGTYYADSVKGRFTISRDNAKNTVYLQMNSLKPEDTAVYYCAAASENIWVWQEYIEYDYWGQGTQVTVSS | low polyreactivity
QVLLVESGGGLVQAGGSLRLSCAASGSIFWGYDMGWYRQAPGKDSELVAVISWSTTSTYFADSVKGRFTISRDNANNTVYLLMNSLKAEDTAVYYCNSEAYQYWEFDYWGQGTQVTVSS | low polyreactivity
QVLLVESGGGLVQAGGSLRLSCAASGSTFNYNAMGWYRQAPGKERELVAVITSGGRTNYADSVKGRFTISRDNAKNTVYLQMNSLKPEDTAVYSCNAEHVSYHFNLKYSGESWGQGTQVTVSS | low polyreactivity
QVLLVESGGGLVQAGGSLRLSCAASGSTLYDYAMGWYRQAPGKETELVAAINGSGGSTYYADSVKGRFTISRDNAKNTVYLQMNSLKPEDTAVYYCNAKRYGFFYWQGDYCGQGTQVTVSS | low polyreactivity
QVLLVESGGGLVQAGGSLRLSCAASRSIFEVNPMGWYRQAPGKERELVAAISCSGGSTYYADSVKGRFTISRDNAKNTVYLQMNSLKPEDTAVYYCAARQAGYSGRKLYYWGQGTQVTVSS | low polyreactivity
QVLLVESGGGLVQAGGSLRLSCAATARNFKYNTMGWYRQAPGKERELVAAISISGGSTYYADSVKGRFRISRDNSKNTVYLQMNSLKPEDTAVYYCNADTTYLSDYVTFAYWGQVTQVTVSS | low polyreactivity
QVLLVESGGGLVQAGGSLRLSCAATGSIFVGYVMGWYRQAPGKERELVAAISRSGGRTYYADSVKGRFTISRDNAKNTVYLQMNSLKPEDTAVYYCAVRHRFYTAGYDYWGQGTQVTVSS | low polyreactivity
QVLLVESGGGLVQAGGTLRLSCADSGFTFVTYGMGWYRQEPGKERELVARISSSSTNYADSVKGRFTISRDNAKNTVYLQMKSLKPEDTEVYYCAAVHYRWWYRSAYDFWGQGTQVTVSS | low polyreactivity
QVLLVESGVGLVQAGGSLRLSCAASGRIFKLYAMGWYRQAPGKERELVAAITRRGGSTSYADSVKGRFTISRDNAKNTVYLQMNSLKPEDTAVYYCAASYTGRTVVQGYEYWGQGTQVTVSS | high polyreactivity
QVLLVESGVGLVQAGGSLRLSCASSGFTFYRNAMGWYRQAPGKERELVASISRSGGSTYYADSVKGRFTISRDNAKNTVYLQMNSLKPEDTAVYYCAADLWWIYPHKYYYWGQGTQVTVSS | high polyreactivity
QVNLVESGGGLVQAGGSLRLSCAASGIIFIAYAMRWYRQAPGKERELVADISIGGSTNYADSVKGRFTISRDNAKNTVYLEMNSLKPEDTAVYYCNAGGGFYGSTVEHDYWGKGTQVTVSS | low polyreactivity
QVPIVESGGGLVQAGGSLRLSCAAYGIIFRLNAMGWNTQAPGKERELVAAITRRGGTTYYADSVKGRFTISRDNAKNTVYLQMNSLKPEDTAVYYCNTFYYWQYDWGQGTQVTESS | high polyreactivity
QVPLVESGGGLGQAGGSLRLSCGASGSIFSLYAMGWSRLAPGKEREVVASLTWRGDSTYYADSVTGRFTISRDNAKNTVYLQMNSLKPEDTAVYNCNAVYYYAEPTSFGGYDYWGQGTQVTVSS | low polyreactivity
QVPLVESGGGLLQAGGSLRISCAASGSIFTRNAMGWYRPAPGKERELVAAISRRGVSTYYADSVKGRFTISRDNAKNTVYLQMNSLKPEDTAVYYCTARSPMYRTTYDYWGQGTQVTVSS | high polyreactivity
QVPLVESGGGLVEAGGSLRLSCDASGGIFRGYAKGWYRQAPGKERDLVAAISRGGGSTYYADSVKGRFTISRDNAKNTVYLQLNSLKPEDTAVYYCAAIYTRVYDPVTEFYYWGQGTQVTVSS | high polyreactivity
QVPLVESGGGLVLAGGSLRLSCAASGSTVDDNAMGWYRQAPGKVRELVAGISTNGGSTSYADSVKGRITISRDNAKNTVYLQMNSRKPEHTAVYYSAKGLYVQFDYWGQGTQVTVSS | low polyreactivity
QVPLVESGGGLVQAGGSLRLSCAASGFTFFSHAMGWYSQAPGKDRELVAAITTNGGSTYYADSVKGRFTISRDNAKNTVYVQITSLKPEDTAVYYCAADYSLPWSWLYEYWGQGTQVTVSS | low polyreactivity
QVPLVESGGGLVQAGGSLRLSCAASGFTFTPYGMGWYRPAPGKERELVAAITWNGGRTYYADSVKGRFTISRDNAKNTVYLQMNSLKPEDTAVYYCAAVAWSWQKRGYWGQGTQVTVSS | high polyreactivity
QVPLVESGGGLVQAGGSLRLSCAASGRIFGYYARGWYRQAPGKDRELVASIRRGTRTNYADSVKGRFTISRDNAKNTVYLQMNSLKPEDTAVYYGAATRFQFTTTPWYDYWGQGTQVTVSS | high polyreactivity
QVPLVESGGGLVQAGGSLRLSCAASGRIFSSYAMGWYRQAPGKERELVAAISSRGGSTYYADSVKGRFTISRDNAKNTVYLQMNSLKPEDTAVYYCARVKYSGVVYKYDYWGQGTQVTVSS | high polyreactivity
QVPLVESGGGLVQAGGSLRLSCAASGRTFGRYAMGWYRQTHGKERELVASISWRGGSTYYADSVKGRFTISRDYAKNTVFLQMNSLKPEDTAVYYCAVRFLTYWHGSYWYDYWGQGTQVTVSS | high polyreactivity
QVPLVESGGGLVQAGGSLRLSCAASGRTFRPYALGWYRQAPGKERELVATISGGGSTYYADSVKGRFTISRDNAKNSLYLQLNSLKPEETAFYYCAKVLTYGGVSYISRMDYWGQATQVTVSS | low polyreactivity
QVPLVESGGGLVQAGGSLRLSCAASGSTFRRYGMGWYREAPGKERELFAAISKGGTRTYYADSVKGRFTISRDNAKNTVYLQMNSLKPEDTAVYYCNKAWYAYGPVYASWYGEYDYWGLGTQVTVSS | high polyreactivity
QVPLVESGGGLVQAGGSLRLSCAASGSTLAGYTMGWYRQAPGKERELVAAITWSGSSTYYADSVKGRFTISRDNAKNTVYLQMNSLKPEDTAVYYCAATYYVYSGGNYLRYDSWGQGTQVTVSS | high polyreactivity
QVPLVESGGGLVQAGGSLRLSCAASGSTQNRYAMGWYRQAPGKEREFVAAITWRGGSTYADSVKGRFTISRDNAKTTVYLQMYSLKPEDTAVYYCAAQGYKQRVHYDYWGQGNQVTVSS | high polyreactivity
QVPLVESGGGLVQAGGSLRLSCAASGYIFEKYAMGWYRHAPGKERELVAAITVTGASTYYADSVKGRFTSSRDNAKNTVYLQMNSLKPEDTAVYYGAAKTLSVGYVDPDYGRDYWGQGTQLTVSS | low polyreactivity
QVPLVESGGGVVQAGGSLRLSCAASGRTYRWNVMGWYRQAPGKERELVATISRRSGSTNYADSVKGRFTISRDNAKNTVYLQINSLKPEDTAVYYCNTDTYFPLYDYWGQGTQVTVSS | low polyreactivity
